Literature values, collected in article PMC7539009.

Biological target: VPS29 (Homo sapiens) (UniProt Q9UBQ0)
Experiment: ITC

- Kd: 20 µM
Substance: TBC1D5 132-158 (from UniProt Q92609)
